Assays:
human HER3 ectodomain = target: T1, human HER3 ectodomain (human, UniProt P21860 20-643); assay: SPR Biacore T100, 37 C, antibody captured via anti-human IgG-Fc, ECD as analyte, 1:1 Langmuir fit
T1 construct: extracellular domain; also called hu HER3 ECD; Her3 ECD
Description: (§1) All experiments were performed on a Biacore T100 (GE Healthcare). Experimental results were analyzed using the T100 control and evaluation software package (GE Healthcare, v2.03). The assay format was a ‘multi cycle kinetic’ measurement on a CM5-chip. […] Using a concentration series, seven increasing concentrations of each of the antigens (human Her1, Her2, and Her3 ectodomain) were injected separately. […] Running buffer was PBS-T. Dilution buffer was PBST containing BSA (c=1 mg/mL). Capturing of MAbs<HerX> on flow cell 2, 3, and 4 with a concentration of approx. c=1 nM, flow 50/min, time 72 sec. […] Dissociation time: 1800 sec. Each concentration was analyzed as duplicate. Final regeneration was performed after each cycle using 3 M MgCl2 (recommended by vendor) with a contact time of 120 sec and a flow rate of 50 μl/min. Analysis of simultaneous binding: Her2/Her3, Her3/Her2 or Her1/Her2 were injected consecutively using the dual inject mode with a contact time of 180 sec. each. The antigen concentration was chosen for each antigen at the saturation as observed in the kinetics experiment. […] A temperature of 25° C. was chosen to minimize dissociation. Triplicates for each combination were determined. Flow rate 30 mL/min, dual inject with two injects, each 180 sec.

human HER1 ectodomain = target: T2, human HER1 ectodomain (human, UniProt P00533 25-645); assay: as above
T2 construct: extracellular domain; also called hu HER1 ECD; Her1 ECD
Description: as §1

human HER2 ectodomain = target: T3, human HER2 ectodomain (human, UniProt P04626 23-652); assay: SPR (Biacore T100), antibody captured via anti-human IgG-Fc on a CM5 chip, dual inject Her2 then Her3 ectodomain, 180 s each, 25 °C
T3 construct: extracellular domain; also called hu HER2 ECD; Her2 ECD
Description: as §1

T1 sequence (P21860 20-643): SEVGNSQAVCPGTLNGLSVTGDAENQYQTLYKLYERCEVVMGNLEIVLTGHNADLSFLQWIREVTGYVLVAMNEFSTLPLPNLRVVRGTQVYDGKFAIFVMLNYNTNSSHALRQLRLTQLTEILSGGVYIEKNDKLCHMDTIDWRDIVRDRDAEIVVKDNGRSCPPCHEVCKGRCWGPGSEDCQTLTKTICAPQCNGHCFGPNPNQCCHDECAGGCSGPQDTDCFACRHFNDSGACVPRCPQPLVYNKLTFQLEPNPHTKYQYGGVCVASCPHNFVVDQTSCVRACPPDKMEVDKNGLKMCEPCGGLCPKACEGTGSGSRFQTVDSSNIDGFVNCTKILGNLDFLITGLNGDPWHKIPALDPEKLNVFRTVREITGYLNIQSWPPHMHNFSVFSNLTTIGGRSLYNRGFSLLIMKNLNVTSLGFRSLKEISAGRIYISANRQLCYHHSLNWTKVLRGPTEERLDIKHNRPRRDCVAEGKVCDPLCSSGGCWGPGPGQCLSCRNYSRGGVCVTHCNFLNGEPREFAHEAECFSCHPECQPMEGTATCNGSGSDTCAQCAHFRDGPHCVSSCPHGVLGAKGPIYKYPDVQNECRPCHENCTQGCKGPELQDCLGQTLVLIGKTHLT

| Kd (human HER3 ectodomain) | koff (human HER3 ectodomain) | kon (human HER3 ectodomain) | t ½ (human HER3 ectodomain) | Kd (human HER1 ectodomain) | koff (human HER1 ectodomain) | kon (human HER1 ectodomain) | t ½ (human HER1 ectodomain) | binding result (human HER2 ectodomain) | Binder |
| --- | --- | --- | --- | --- | --- | --- | --- | --- | --- |
| 1.9 nM | 0.0037 s⁻¹ | 2e+06 M⁻¹ s⁻¹ | 3.1 min | 14 nM | 0.021 s⁻¹ | 1.4e+06 M⁻¹ s⁻¹ | 0.6 min | no binding | parental DAF (Her1-Her3 dual affinity antibody) (antibody, also called DAF antibody; Bispecific parent Her1/Her3 (with KiH)) heavy 1: not shown heavy 2: not shown light: DIQMTQSPSSLSASVGDRVTITCRASQNIATDVAWYQQKPGKAPKLLIYSASFLYSGVPSRFSGSGSGTDFTLTISSLQPEDFATYYCQQSEPEPYTFGQGTKVEIKRTVAAPSVFIFPPSDEQLKSGTASVVCLLNNFYPREAKVQWKVDNALQSGNSQESVTEQDSKDSTYSLSSTLTLSKADYEKHKVYACEVTHQGLSSPVTKSFNRGEC |
| 1.8 nM | 0.0044 s⁻¹ | 2.4e+06 M⁻¹ s⁻¹ | 2.6 min | 17 nM | 0.02 s⁻¹ | 1.2e+06 M⁻¹ s⁻¹ | 0.6 min | – | trispecific antibody KiH Her1-Her3 DAF-xHer2 (antibody, human IgG1, kappa, also called Trispecific Her1/Her3 xHer2) heavy 1: not shown heavy 2: not shown light 1: DIQMTQSPSSLSASVGDRVTITCRASQNIATDVAWYQQKPGKAPKLLIYSASFLYSGVPSRFSGSGSGTDFTLTISSLQPEDFATYYCQQSEPEPYTFGQGTKVEIKRTVAAPSVFIFPPSDEQLKSGTASVVCLLNNFYPREAKVQWKVDNALQSGNSQESVTEQDSKDSTYSLSSTLTLSKADYEKHKVYACEVTHQGLSSPVTKSFNRGEC light 2: DIQMTQSPSSLSASVGDRVTITCKASQDVSIGVAWYQQKPGKAPKLLIYSASYRYTGVPSRFSGSGSGTDFTLTISSLQPEDFATYYCQQYYIYPYTFGQGTKVEIKSSASTKGPSVFPLAPSSKSTSGGTAALGCLVKDYFPEPVTVSWNSGALTSGVHTFPAVLQSSGLYSLSSVVTVPSSSLGTQTYICNVNHKPSNTKVDKKVEPKSC |

Source: US20150166670A1 (Hoffmann-La Roche, published 2015)
